According to the supplement of paper PMC9112550, “Optimization of the antimicrobial peptide Bac7 by deep mutational scanning” (BMC Biology, 2022):

System: Escherichia coli TOP10
Assay: shrunken log2 fold change of peptide-encoding DNA abundance (4.5 h post-induction vs induction); higher = less antimicrobial activity (less host growth inhibition)
Details: time post-induction: 4.5 h; library: site-saturation at positions 5, 18, 19, 20
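Note: peptides expressed intracellularly from a pBAD plasmid library in pooled LB shake-flask culture, induced with 0.3% L-arabinose, DNA abundance read by NGS, three biological replicates, DESeq2 with apeglm shrinkage.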

| Sequence | shrunken log2 fold change |
| --- | --- |
| RRIRIRPPRLPRPRPRPLMNPRP | -0.94 |
| RRIRIRPPRLPRPRPRPLPDPRP | 0.0943 |
| RRIRIRPPRLPRPRPRPLPQPRP | -0.247 |
| RRIRIRPPRLPRPRPRPLQHPRP | -0.121 |
| RRIRIRPPRLPRPRPRPLQKPRP | -0.0683 |
| RRIRIRPPRLPRPRPRPLQNPRP | -0.359 |
| RRIRIRPPRLPRPRPRPLRCPRP | -0.14 |
| RRIRIRPPRLPRPRPRPLREPRP | 0.255 |
| RRIRIRPPRLPRPRPRPLRVPRP | 0.291 |
| RRIRIRPPRLPRPRPRPLSDPRP | 0.0446 |
| RRIRIRPPRLPRPRPRPLSWPRP | -0.0609 |
| RRIRIRPPRLPRPRPRPLVDPRP | 0.126 |
| RRIRIRPPRLPRPRPRPLVIPRP | -1.46 |
| RRIRIRPPRLPRPRPRPLWDPRP | -0.113 |
| RRIRIRPPRLPRPRPRPLWMPRP | -0.303 |
| RRIRIRPPRLPRPRPRPLWRPRP | 0.156 |
| RRIRIRPPRLPRPRPRPLYSPRP | -0.674 |
| RRIRIRPPRLPRPRPRPMGTPRP | -0.0384 |
| RRIRIRPPRLPRPRPRPMHPPRP | 0.00185 |
| RRIRIRPPRLPRPRPRPMIAPRP | -0.101 |
| RRIRIRPPRLPRPRPRPMIMPRP | -0.615 |
| RRIRIRPPRLPRPRPRPMKHPRP | -0.224 |
| RRIRIRPPRLPRPRPRPMKLPRP | -0.519 |
| RRIRIRPPRLPRPRPRPMMLPRP | -0.0496 |
| RRIRIRPPRLPRPRPRPMNVPRP | -0.122 |

| Sequence | shrunken log2 fold change |
| --- | --- |
| RRIRIRPPRLPRPRPRPMPEPRP | -0.11 |
| RRIRIRPPRLPRPRPRPMPPPRP | -0.0836 |
| RRIRIRPPRLPRPRPRPMQTPRP | -0.0288 |
| RRIRIRPPRLPRPRPRPMRWPRP | -0.0141 |
| RRIRIRPPRLPRPRPRPMTWPRP | -0.0244 |
| RRIRIRPPRLPRPRPRPMVCPRP | -0.0245 |
| RRIRIRPPRLPRPRPRPMVYPRP | -0.136 |
| RRIRIRPPRLPRPRPRPMWFPRP | -0.0453 |
| RRIRIRPPRLPRPRPRPNAEPRP | -0.151 |
| RRIRIRPPRLPRPRPRPNEGPRP | -0.45 |
| RRIRIRPPRLPRPRPRPNFAPRP | 0.0322 |
| RRIRIRPPRLPRPRPRPNGYPRP | -0.0764 |
| RRIRIRPPRLPRPRPRPNHEPRP | 0.042 |
| RRIRIRPPRLPRPRPRPNINPRP | -0.918 |
| RRIRIRPPRLPRPRPRPNKGPRP | -0.137 |
| RRIRIRPPRLPRPRPRPNMEPRP | -0.509 |
| RRIRIRPPRLPRPRPRPNMKPRP | -0.625 |
| RRIRIRPPRLPRPRPRPNNEPRP | -0.597 |
| RRIRIRPPRLPRPRPRPNPCPRP | -0.159 |
| RRIRIRPPRLPRPRPRPNQFPRP | -0.0326 |
| RRIRIRPPRLPRPRPRPNRIPRP | -0.481 |
| RRIRIRPPRLPRPRPRPNTHPRP | -0.677 |
| RRIRIRPPRLPRPRPRPNVCPRP | -0.204 |
| RRIRIRPPRLPRPRPRPNVRPRP | 0.0422 |
| RRIRIRPPRLPRPRPRPNVVPRP | -0.508 |

| Sequence | shrunken log2 fold change |
| --- | --- |
| RRIRIRPPRLPRPRPRPNYEPRP | -0.396 |
| RRIRIRPPRLPRPRPRPNYPPRP | -0.565 |
| RRIRIRPPRLPRPRPRPNYSPRP | -0.937 |
| RRIRIRPPRLPRPRPRPPAGPRP | 0.518 |
| RRIRIRPPRLPRPRPRPPDIPRP | -0.198 |
| RRIRIRPPRLPRPRPRPPDTPRP | -0.116 |
| RRIRIRPPRLPRPRPRPPERPRP | 0.324 |
| RRIRIRPPRLPRPRPRPPFMPRP | -0.256 |
| RRIRIRPPRLPRPRPRPPFQPRP | 0.0365 |
| RRIRIRPPRLPRPRPRPPHPPRP | 0.154 |
| RRIRIRPPRLPRPRPRPPIAPRP | -0.109 |
| RRIRIRPPRLPRPRPRPPIKPRP | -0.4 |
| RRIRIRPPRLPRPRPRPPILPRP | -0.0859 |
| RRIRIRPPRLPRPRPRPPKFPRP | -0.294 |
| RRIRIRPPRLPRPRPRPPMRPRP | 0.591 |
| RRIRIRPPRLPRPRPRPPPEPRP | 0.32 |
| RRIRIRPPRLPRPRPRPPPGPRP | 0.685 |
| RRIRIRPPRLPRPRPRPPPQPRP | 0.52 |
| RRIRIRPPRLPRPRPRPPPRPRP | 0.929 |
| RRIRIRPPRLPRPRPRPPQAPRP | 0.639 |
| RRIRIRPPRLPRPRPRPPQRPRP | 0.27 |
| RRIRIRPPRLPRPRPRPPRGPRP | 0.534 |
| RRIRIRPPRLPRPRPRPPSHPRP | -0.0543 |
| RRIRIRPPRLPRPRPRPPVKPRP | -0.156 |
| RRIRIRPPRLPRPRPRPPVQPRP | -0.0716 |
